Experiment: Heparin affinity chromatography (NaCl elution from immobilized heparin)
Format: binding
Conditions: partially purified sample, 0.2-2M NaCl gradient, pH 7.5
Excerpt: Heparin affinity chromatography has been used extensively for purifying and characterizing a variety of these growth factors. Acidic FGF (aFGF) and basic FGF (bFGF) bind to immobilized heparin columns and are eluted with 1.0M to 1.2M NaCl and 1.5M to 1.8M NaCl, respectively (Folkman and Klagsbrun, 235 Science 442, 1987; Lobb et al., 261 J. Biol. Chem. 1924, 1986). Several growth factors which are structurally homologous to aFGF and bFGF also have an affinity for heparin (see, for example, Rubin et al., 86 Proc. Natl. Acad. Sci. USA 802, 1989). PDGF binds to immobilized heparin, but with relatively low affinity, being eluted with only 0.5M NaCl. […] Lobb et al. (261 J. Biol. Chem. 1924, 1986) report the partial purification by heparin affinity of two classes of growth factors mitogenic for endothelial cells. Gospodarowicz et al. (81 Proc. Natl. Acad. Sci. USA 6963, 1984) report the use of heparin affinity in the purification of bovine brain and pituitary fibroblast growth factors. Shing et al. (29 J. Cell Biochem. 275, 1985) report a chondrosarcoma-derived growth factor purified by heparin-Sepharose affinity chromatography and Bio Rex 70 cation exchange chromatography. […]
HB-EHM was purified as follows. Growth factor activity was monitored during the purification procedures using BALB/c mouse 3T3 cells as target cells and measuring [^3 H]-thymidine incorporation into DNA. […]

B1: HB-EHM: novel heparin binding growth factor with EGF-homologous segment, purified from U-937 lymphoma cell conditioned medium, about 22 kD (protein)
chain: RVTLSSKPQALATPNKEEHGKRKKKGKGLGKKRDPCLRKYKDFCIHGECKYVKELRAPSCICHPGYHGERCHGLS
modifications: O-linked glycosylation (suggested by O-glycanase treatment; the threonines predicted at positions 2 and 12 of the form first sequenced were not detected in protein sequencing)
  NaCl concentration eluting from the TSK-heparin column: 1 to 1.2 M
